Experimental data taken from paper PMC11849073, “Specific recognition mechanism of an antibody to sulfated tyrosine and its potential use in biological research” (The Journal of Biological Chemistry, 2025).

Columns and labels:
[1] = system: CCR5 on HEK293 cells transfected with CCR5 (C) or CCR5 + TPST1 (C1); assay: Flow cytometry binding to C and C1 cells; type: cell-based; conditions: cells overexpressing only CCR5 or CCR5 and TPST1
Excerpt: (§1) We prepared model cells with transient overexpression to examine whether BA8 can recognize sulfated full-length CCR5. As referred in the Introduction section, previous research has shown that protein tyrosine sulfotransferases (TPSTs) are responsible for tyrosine sulfation ([10], [11], [12]). Those two isoforms of TPST (TPST1 and TPST2) and CCR5 genes were transiently transfected in the following five combinations to HEK293 cells: Negative Control (NC); CCR5 (C); CCR5 + TPST1 (C1); CCR5 + TPST2 (C2); and CCR5 + TPST1 + TPST2 (C12). Each protein contained the following tag sequences at the C-terminus: CCR5 – FLAG, TPST1 – HA, and TPST2 – Myc. The overexpression of each protein was confirmed by western blotting using tag antibodies (Fig. 5, A and B).
(§2) We conducted flow cytometry using these cells to confirm that BA8 can recognize sulfated CCR5 expressed on the cell surface (Fig. 5D).
HEK293 cells stored in liquid nitrogen were initiated into the culture by thawing. After the third passage, at 70% confluency, they were transfected with pCAGGS expression vectors containing CCR5, TPST1, or TPST2 using Lipofectamine 3000 Transfection Reagent (ThermoFisher Scientific). To exclude artifacts caused by the transfection operation itself, empty vectors without the objective protein were transfected if the protein was not to be expressed. […]

[2] = system: CCR5 sulfated by TPST2 in cell lysates; assay: Western blotting of transfected HEK293 cell lysates with BA8 as detection antibody; type: binding; conditions: 100 nM BA8 (full-length IgG) as detection antibody; lysates of NC, C, C1, C2, C12 cells
Excerpt: as §1
We prepared recombinant BA8 as a full-length IgG form for subsequent cell-based assays (Fig. S2, C and D).
The cell lysate suspended in RIPA Buffer was placed on ice for 30 min, followed by centrifugation at 20,000 × g for 20 min. […] Protein bands were detected by incubating the membranes with anti-DDDDK-tag mAb-HRP-DirecT, anti-HA tag mAb-HRP-DirecT, anti-Myc tag mAb-HRP-DirecT (all from MBL Lifescience), or each IgG followed by incubation with horseradish peroxidase (HRP)-conjugated anti-rabbit IgG, HRP-linked antibody (Cell Signaling Technology) at room temperature for 30 min. […]

[3] = system: sulfated CCR5 on HEK293 cells transfected with CCR5 + TPST1 + TPST2 (C12); assay: Flow cytometry binding to C12 cells; type: cell-based; conditions: BA8 full-length IgG, median fluorescence intensity vs concentration, sigmoid fit, read-out: half-maximal binding concentration (BC50)
Excerpt: as §1, §2
To quantitatively evaluate the binding ability of BA8 to C2 and C12 cells, we plotted the median fluorescence intensity of antibody binding against BA8 concentration (Fig. 5E). An increase in the signal with increasing antibody concentration was confirmed, and the binding activity was quantitatively evaluated by fitting with a sigmoid function.
HEK293 cells stored in liquid nitrogen were initiated into the culture by thawing. […]

B1: BA8: rabbit antibody clone from phage display that specifically recognizes the sulfated N-terminal peptide of CCR5 (antibody, V domains shown)
VH: QSLEESGGGLFKPTDTLTLTCTVSGFSLSSYSIRWVRQAPGNGLEWIGAIGSGGNAYYTSWAKSRSTITRNTNENTVTLKMTSLTVADTATYFCARGGINFGIWGPGTLVTVSS
VL: AAVLTQTPSPVSAAVGSTVTINCQSSQSVYSKNWLSWFQQKPGQPPKQLIYSASTLDSGVPSRFSGSGSGTQFTLTISGVQCDDAATYYCQGTYGDASAFGGGTEVVVK
binding to C and C1 cells in flow cytometry, in words [1]: slight binding | recognition of CCR5 in cell lysates by western blotting, in words [2]: specifically recognized CCR5 in the lysates of cells C2 and C12 | EC50 [3]: 3.71 nM
